Experimental data from article PMC8038991 (2021).
Ends that are not written are not given here.

Legend:
[1] = biological target: N132Q ZZ fragment p62 (122-175) (Homo sapiens); experiment: ITC
[2] = biological target: purified wild type ZZ fragment p62 (122-175) of the ITC table (Fig. 3b) (human, UniProt Q13501 122-175); experiment: ITC

Sequence of N132Q ZZ fragment p62 (122-175) (Homo sapiens) (chain, as listed by the source N132Q): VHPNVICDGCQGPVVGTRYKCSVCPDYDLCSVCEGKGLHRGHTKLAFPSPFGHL

Binder	Kd [1]	Kd [2]
YIFS (also: two Zn2+ ions bound) [YIFS tetrapeptide (Nt-Tyr)]	143 µM	–
WIFS	–	374 µM
RIFS (also: two Zn2+ ions bound) [RIFS tetrapeptide (Nt-Arg)]	21.4 µM	–
KIFS	–	51.8 µM
HIFS	–	300 µM
